Data as given in patent US12617818.

Biological target: Rabbit skeletal myosin (rabbit)
Assay: cell-based or functional assay

Sequence of Rabbit skeletal myosin (Q28641 whole entry): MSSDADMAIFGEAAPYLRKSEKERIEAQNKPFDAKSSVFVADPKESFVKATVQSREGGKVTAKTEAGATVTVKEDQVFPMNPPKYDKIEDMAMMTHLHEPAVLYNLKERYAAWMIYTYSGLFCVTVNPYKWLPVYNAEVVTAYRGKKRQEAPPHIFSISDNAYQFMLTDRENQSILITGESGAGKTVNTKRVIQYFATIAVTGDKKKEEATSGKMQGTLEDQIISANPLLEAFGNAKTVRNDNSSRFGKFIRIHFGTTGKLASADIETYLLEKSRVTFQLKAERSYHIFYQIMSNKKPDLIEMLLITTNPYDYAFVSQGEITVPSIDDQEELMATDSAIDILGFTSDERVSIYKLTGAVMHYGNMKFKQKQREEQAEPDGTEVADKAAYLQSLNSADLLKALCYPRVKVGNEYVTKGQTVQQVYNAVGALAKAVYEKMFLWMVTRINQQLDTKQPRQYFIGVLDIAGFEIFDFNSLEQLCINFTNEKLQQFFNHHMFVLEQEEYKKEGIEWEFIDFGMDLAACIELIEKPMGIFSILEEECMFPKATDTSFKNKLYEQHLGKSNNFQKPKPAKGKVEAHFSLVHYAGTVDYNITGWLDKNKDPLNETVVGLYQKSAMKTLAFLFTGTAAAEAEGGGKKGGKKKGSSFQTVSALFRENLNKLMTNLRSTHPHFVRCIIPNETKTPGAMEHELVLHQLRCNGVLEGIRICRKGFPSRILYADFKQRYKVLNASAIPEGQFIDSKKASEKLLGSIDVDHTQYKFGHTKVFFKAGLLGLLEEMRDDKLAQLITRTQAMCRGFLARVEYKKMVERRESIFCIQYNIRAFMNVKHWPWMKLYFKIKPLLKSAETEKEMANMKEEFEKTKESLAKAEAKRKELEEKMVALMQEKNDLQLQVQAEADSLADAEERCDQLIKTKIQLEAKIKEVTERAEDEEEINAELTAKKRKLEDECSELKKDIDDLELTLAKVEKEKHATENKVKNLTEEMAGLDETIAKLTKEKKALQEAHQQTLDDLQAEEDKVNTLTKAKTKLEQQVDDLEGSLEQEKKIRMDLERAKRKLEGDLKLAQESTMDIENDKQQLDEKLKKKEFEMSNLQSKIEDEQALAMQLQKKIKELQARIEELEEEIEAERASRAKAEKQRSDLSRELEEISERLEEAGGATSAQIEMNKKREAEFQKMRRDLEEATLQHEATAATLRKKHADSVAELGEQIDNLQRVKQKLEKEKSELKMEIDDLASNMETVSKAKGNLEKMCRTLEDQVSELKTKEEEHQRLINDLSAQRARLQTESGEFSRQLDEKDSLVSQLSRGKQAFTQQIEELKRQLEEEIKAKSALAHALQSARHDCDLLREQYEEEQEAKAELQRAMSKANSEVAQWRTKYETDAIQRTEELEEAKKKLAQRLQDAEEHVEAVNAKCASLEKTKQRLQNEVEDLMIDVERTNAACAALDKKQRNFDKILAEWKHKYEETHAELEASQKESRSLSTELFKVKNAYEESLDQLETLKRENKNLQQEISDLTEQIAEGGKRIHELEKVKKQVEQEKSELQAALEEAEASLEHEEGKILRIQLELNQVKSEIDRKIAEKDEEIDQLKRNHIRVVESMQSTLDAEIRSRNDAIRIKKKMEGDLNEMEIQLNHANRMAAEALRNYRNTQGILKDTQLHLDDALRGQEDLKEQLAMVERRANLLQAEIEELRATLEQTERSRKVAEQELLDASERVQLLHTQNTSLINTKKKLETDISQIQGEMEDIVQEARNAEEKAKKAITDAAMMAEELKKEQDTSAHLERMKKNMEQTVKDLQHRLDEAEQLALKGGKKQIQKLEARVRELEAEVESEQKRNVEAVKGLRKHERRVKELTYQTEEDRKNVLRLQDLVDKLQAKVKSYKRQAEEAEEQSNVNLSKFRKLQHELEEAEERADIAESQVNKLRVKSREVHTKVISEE
Sequence of Rabbit skeletal myosin (P02602 2-192, further chain): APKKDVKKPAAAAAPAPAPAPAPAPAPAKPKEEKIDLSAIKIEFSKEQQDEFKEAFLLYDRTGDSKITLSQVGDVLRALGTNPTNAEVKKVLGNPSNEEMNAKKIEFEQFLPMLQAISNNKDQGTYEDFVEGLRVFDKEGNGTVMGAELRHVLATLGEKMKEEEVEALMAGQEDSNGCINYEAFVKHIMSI
Sequence of Rabbit skeletal myosin (P02608 2-170, further chain): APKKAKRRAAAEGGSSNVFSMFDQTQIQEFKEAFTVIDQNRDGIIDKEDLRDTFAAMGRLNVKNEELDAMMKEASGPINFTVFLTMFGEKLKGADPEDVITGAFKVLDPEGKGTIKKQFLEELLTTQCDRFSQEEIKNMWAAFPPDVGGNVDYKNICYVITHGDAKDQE

Row | Substance | in vitro motility: reduction of the motility of actin thin filaments over skeletal myosin thick filaments treated with MyBPC | GFS: force at an uncoiled length of 138 nm, control without antibody | GFS: force to uncoil the myosin molecule for a length of 50 nm, no stabilizer (control) | GFS: force to uncoil the myosin molecule for a length of 60 nm, tethered by S1 heads to G-actin (control) | GFS: force to uncoil the myosin molecule to a length of 100 nm, no destabilizer (control)
1 | Myosin binding protein C (MyBPC), whole length skeletal | 22% |  |  |  | 
2 | Rabbit skeletal myosin |  | 4.8 pN | 3.62 pN | 2.67 pN | 4.92 pN
